T1: His-tagged lamin A/C 250-400 fragment, wild type (human, UniProt P02545 250-400)
T1 sequence (looked up): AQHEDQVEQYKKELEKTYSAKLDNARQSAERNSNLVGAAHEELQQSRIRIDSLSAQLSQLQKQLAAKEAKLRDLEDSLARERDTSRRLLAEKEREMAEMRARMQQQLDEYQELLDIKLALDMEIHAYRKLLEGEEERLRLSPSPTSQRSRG

T2: His-tagged lamin A/C 250-400 fragment, L362C (human, UniProt P02545 250-400, L362C)
T2 sequence (looked up): T1 sequence (looked up) with L113C

T3: His-tagged lamin A/C 1-300 fragment, Y45C (human), P02545
T3 chain: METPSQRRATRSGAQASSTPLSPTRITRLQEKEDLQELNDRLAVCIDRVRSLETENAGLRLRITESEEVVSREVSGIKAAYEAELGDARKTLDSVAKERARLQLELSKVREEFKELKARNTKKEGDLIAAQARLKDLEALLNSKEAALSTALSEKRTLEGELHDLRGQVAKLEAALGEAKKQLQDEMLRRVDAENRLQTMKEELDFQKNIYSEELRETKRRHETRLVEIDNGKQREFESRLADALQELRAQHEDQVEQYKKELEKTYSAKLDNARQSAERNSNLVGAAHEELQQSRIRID

T4: lamin A/C 250-400 fragment, K316C, tag-free (human, UniProt P02545 250-400, K316C)
T4 sequence (looked up): T1 sequence (looked up) with K67C

T5: lamin A/C 250-400 fragment, Y267C, tag-free (human, UniProt P02545 250-400, Y267C)
T5 sequence (looked up): T1 sequence (looked up) with Y18C

B1: His-tagged lamin A/C 1-300 fragment, wild type (domain or fragment, human, UniProt P02545 1-300, looked up)
chain: T3 chain with C45Y
B2: His-tagged lamin A/C 1-300 fragment, L59R (domain or fragment, human, UniProt P02545 1-300, looked up)
chain: T3 chain with C45Y, L59R
B3: His-tagged lamin A/C 1-300 fragment, L35V (domain or fragment, human, UniProt P02545 1-300, looked up)
chain: T3 chain with L35V, C45Y
B4: His-tagged lamin A/C 1-300 fragment, Y45C (domain or fragment, human, UniProt P02545 1-300, looked up)
chain: T3 chain
B5: His-tagged lamin A/C 1-300 fragment, I63S (domain or fragment, human, UniProt P02545 1-300, looked up)
chain: T3 chain with C45Y, I63S
B6: lamin A/C 1-125 fragment, wild type, prey of Fig. 6B (domain or fragment, human, UniProt P02545 1-125, looked up)
chain: METPSQRRATRSGAQASSTPLSPTRITRLQEKEDLQELNDRLAVYIDRVRSLETENAGLRLRITESEEVVSREVSGIKAAYEAELGDARKTLDSVAKERARLQLELSKVREEFKELKARNTKKEG
B7: lamin A/C 250-400 fragment (C-terminal part of coil 2), wild type, tag-free (domain or fragment, human, UniProt P02545 250-400, looked up)
chain: T1 sequence (looked up)
B8: His-tagged lamin A/C 1-125 fragment, wild type (domain or fragment, human, UniProt P02545 1-125, looked up)
chain: B6 chain
B9: His-tagged lamin A/C 1-125 fragment, L59R (domain or fragment, human, UniProt P02545 1-125, looked up)
chain: B6 chain with L59R
B10: His-tagged lamin A/C 1-125 fragment, L35V (domain or fragment, human, UniProt P02545 1-125, looked up)
chain: B6 chain with L35V
B11: His-tagged lamin A/C 1-125 fragment, I63S (domain or fragment, human, UniProt P02545 1-125, looked up)
chain: B6 chain with I63S
B12: His-tagged lamin A/C 1-125 fragment, Y45C (domain or fragment, human, UniProt P02545 1-125, looked up)
chain: B6 chain with Y45C

Numbering of substitutions follows the chain as printed. Numbers in names are those of the source.

Data set [1] deals with the molecule itself.
The target of data set [2] is T1, His-tagged lamin A/C 250-400 fragment, …. Kind of data set: pull-down.
Data set [3] concerns the target T2, His-tagged lamin A/C 250-400 fragment, …. In words: pull-down.
In data set [4] the target is B1. Kind of data set: pull-down.
The target in data set [5] is B3. Kind of data set: ITC. (In general: Isothermal titration calorimetry measures the heat released or taken up as one component is titrated into another.)
Data set [6] addresses B5. Kind of data set: ITC.
Data set [7] concerns the target B2. In words: ITC.
Data set [8] addresses T3, His-tagged lamin A/C 1-300 fragment, …. Kind of data set: ITC. The settings on record: remark: other sources report otherwise.
Data set [9] deals with T4, lamin A/C 250-400 fragment, K316C, …. Kind of data set: pull-down.
Data set [10] concerns the target T5, lamin A/C 250-400 fragment, Y267C, …. Kind of data set: pull-down.
In data set [11] the target is B7. In words: pull-down.

For orientation: stoichiometry N means the number of molecules, sites or subunits per partner or assembly.

Consider B1, for which the “stoichiometry N” value in [1] turned out to be 2.
The same measure, in the same setting: then B2, with 2; and B3, with 2.
Same read-out and setting: then B4, with 2; and B5, with 2.
Take B6: the binding result in data set [2] and in [3] was “binds” throughout.
As to B7, in data set [4], the binding result is on record as “binds”. The “fold decrease of the eA22 interaction against wild type (from KD)” value in data set [5] is ~2 fold; in data set [8], 5 fold. In addition, the figures for the “fold increase of the eA22 interaction against wild type (from KD)” value in [6] and in [7] were ~2 fold and ~56 fold, respectively.
For B8, the binding result in [9], in data set [10] and in [11] was “binds” in each case.
Regarding B9, the binding result in data set [11] was “binds”.
Still for that read-out and setting: to B10 belongs “binds”; to B11, “binds”; to B12, “binds”.

The record behind these values is publication doi:10.1101/2020.09.29.317933 (bioRxiv, 2020).
